*: point of attachment. Palmitoyl = CCCCCCCCCCCCCCCC(=O)*
Legend:
FGFR2 Kinase = FGFR2 Kinase (Homo sapiens, UniProt P21802); test: FGFR2 kinase inhibition; format: biochemical; conditions: percent inhibition of control enzyme activity; test concentration not given
Procedure: [The source words this procedure for another target and reports this target under the same test.] Evaluation of the effects of the dodecapeptides of the invention on the activity of the human FGFR1 kinase were quantified by measuring the phosphorylation of the substrate Ulight-CAGAGAIETDKEYYTVKD (JAK1) using a human recombinant enzyme expressed in insect cells and the LANCE® detection method using the protocol described below:
The peptide to be tested, the reference compound or water (control) are mixed with the enzyme (0.252 ng) in a buffer containing 40 mM Hepes/Tris (pH 7.4), 0.8 mM EGTA/Tris, 8 mM MgCl2, 1.6 mM DTT and 0.008% Tween 20 (For control basal measurements, the enzyme is omitted from the reaction mixture). Thereafter, the reaction is initiated by adding 100 nM of the substrate Ulight-CAGAGAIETDKEYYTVKD (SEQ ID NO: 13) (JAK-1 peptide) and 100 μM ATP, and the mixture is incubated for 60 min at room temperature. Following incubation, the reaction is stopped by adding 13 mM EDTA. After 5 min, the anti-phospho-PT66 antibody labeled with europium chelate (EU-W1024-labeled Anti-Phosphotyrosine Antibody PT66, from Perkin Elmer) is added. After 60 more min, the fluorescence transfer is measured at λex=337 nm, λem=620 nm and λem=665 nm using a microplate reader (Envision, Perkin Elmer).
The enzyme activity is determined by dividing the signal measured at 665 nm by that measured at 620 nm (ratio). The results are expressed as a percent inhibition of the control enzyme activity.
The standard inhibitory reference compound is staurosporine, which is tested in each experiment at several concentrations to obtain an inhibition curve from which its IC50 value is calculated.
Results showing an inhibition (or stimulation for assays run in basal conditions) higher than 20% are considered to represent significant effects of the peptides of the invention.

FGFR3 Kinase = FGFR3 Kinase (UniProt P22607 436-806); test: cell-based or functional assay
human FGFR1 kinase = human FGFR1 kinase (human, UniProt P11362 398-822, limits assumed); test: cell-based or functional assay
FGFR4 Kinase = FGFR4 Kinase (UniProt P22455 460-802, limits assumed); test: cell-based or functional assay
Chain of FGFR4 Kinase (P22455 460-802 limits assumed): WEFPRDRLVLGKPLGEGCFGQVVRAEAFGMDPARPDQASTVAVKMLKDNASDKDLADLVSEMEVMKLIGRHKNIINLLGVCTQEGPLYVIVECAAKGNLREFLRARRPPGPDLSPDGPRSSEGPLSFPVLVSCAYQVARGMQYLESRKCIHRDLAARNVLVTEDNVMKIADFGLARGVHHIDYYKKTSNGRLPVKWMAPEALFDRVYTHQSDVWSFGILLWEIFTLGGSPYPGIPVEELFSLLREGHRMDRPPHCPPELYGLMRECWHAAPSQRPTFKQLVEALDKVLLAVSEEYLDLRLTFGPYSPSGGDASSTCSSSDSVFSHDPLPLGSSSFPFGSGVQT

Chain of human FGFR1 kinase (P11362 398-822 limits assumed): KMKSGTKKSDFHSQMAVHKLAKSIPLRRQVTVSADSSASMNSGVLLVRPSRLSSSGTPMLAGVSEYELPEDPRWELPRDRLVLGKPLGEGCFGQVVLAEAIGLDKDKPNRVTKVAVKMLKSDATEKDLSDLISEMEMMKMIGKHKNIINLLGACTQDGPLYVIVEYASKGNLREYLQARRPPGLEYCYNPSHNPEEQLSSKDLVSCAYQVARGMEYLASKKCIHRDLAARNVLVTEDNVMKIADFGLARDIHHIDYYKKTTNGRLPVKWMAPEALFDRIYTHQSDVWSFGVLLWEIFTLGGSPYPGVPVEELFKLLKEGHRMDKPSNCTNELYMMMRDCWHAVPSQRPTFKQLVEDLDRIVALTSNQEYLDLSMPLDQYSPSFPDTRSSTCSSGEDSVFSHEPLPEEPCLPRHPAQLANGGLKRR
Chain of FGFR3 Kinase (P22607 436-806 limits assumed): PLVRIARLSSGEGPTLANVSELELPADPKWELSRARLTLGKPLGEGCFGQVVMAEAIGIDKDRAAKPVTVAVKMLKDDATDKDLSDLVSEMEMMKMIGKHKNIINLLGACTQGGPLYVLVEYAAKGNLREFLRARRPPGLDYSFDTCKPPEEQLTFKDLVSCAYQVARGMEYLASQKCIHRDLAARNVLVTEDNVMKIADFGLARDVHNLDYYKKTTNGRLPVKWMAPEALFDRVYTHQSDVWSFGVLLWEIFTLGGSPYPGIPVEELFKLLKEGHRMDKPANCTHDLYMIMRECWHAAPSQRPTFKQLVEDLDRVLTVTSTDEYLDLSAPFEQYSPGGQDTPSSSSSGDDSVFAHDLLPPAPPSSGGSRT
Chain of FGFR2 Kinase (P21802 22-821): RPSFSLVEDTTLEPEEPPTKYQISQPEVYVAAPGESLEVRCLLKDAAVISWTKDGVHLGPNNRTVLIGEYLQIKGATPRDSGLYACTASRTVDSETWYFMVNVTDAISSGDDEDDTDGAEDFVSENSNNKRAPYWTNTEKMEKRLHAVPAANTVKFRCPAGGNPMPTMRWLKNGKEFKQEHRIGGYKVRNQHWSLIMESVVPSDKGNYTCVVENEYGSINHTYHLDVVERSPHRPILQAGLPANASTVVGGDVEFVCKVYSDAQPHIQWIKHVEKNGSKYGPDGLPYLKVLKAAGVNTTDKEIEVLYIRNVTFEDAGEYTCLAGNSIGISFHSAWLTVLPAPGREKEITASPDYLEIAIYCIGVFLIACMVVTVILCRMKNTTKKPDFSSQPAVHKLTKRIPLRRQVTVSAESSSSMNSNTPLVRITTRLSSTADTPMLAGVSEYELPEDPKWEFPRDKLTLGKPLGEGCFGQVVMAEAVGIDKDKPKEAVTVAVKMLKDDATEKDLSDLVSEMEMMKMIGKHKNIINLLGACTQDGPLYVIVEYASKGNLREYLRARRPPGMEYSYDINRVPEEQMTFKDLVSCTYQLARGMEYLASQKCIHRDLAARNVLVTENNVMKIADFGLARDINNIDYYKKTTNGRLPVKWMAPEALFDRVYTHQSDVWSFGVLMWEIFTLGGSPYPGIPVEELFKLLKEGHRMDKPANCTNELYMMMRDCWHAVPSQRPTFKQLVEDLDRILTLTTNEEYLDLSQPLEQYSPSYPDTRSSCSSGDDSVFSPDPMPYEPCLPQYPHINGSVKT

Row | Molecule | FGFR2 Kinase % Inhibition (FGFR2 Kinase) [%] | FGFR3 Kinase % Inhibition (FGFR3 Kinase) [%] | FGFR1 Kinase % Inhibition (human FGFR1 kinase) [%] | FGFR4 Kinase % Inhibition (FGFR4 Kinase) [%]
1 | Palm-Lys-Phe-Asn-Leu-Pro-Leu-Gly-Asn-Ala-Lys-Lys-Pro-NH2 (Palmitoyl-KFNLPLGNAKKP-NH2; SMILES CCCCCCCCCCCCCCCC(=O)N[C@@H](CCCCN)C(=O)N[C@@H](Cc1ccccc1)C(=O)N[C@@H](CC(N)=O)C(=O)N[C@@H](CC(C)C)C(=O)N1CCC[C@H]1C(=O)N[C@@H](CC(C)C)C(=O)NCC(=O)N[C@@H](CC(N)=O)C(=O)N[C@@H](C)C(=O)N[C@@H](CCCCN)C(=O)N[C@@H](CCCCN)C(=O)N1CCC[C@H]1C(N)=O) [Peptide 9] | 99.4 |  |  | 
2 | Palm-Lys-Phe-Asn-Leu-Pro-Leu-Gly-Asn-Tyr-Ala-Lys-Pro-NH2 (Palmitoyl-KFNLPLGNYAKP-NH2; SMILES CCCCCCCCCCCCCCCC(=O)N[C@@H](CCCCN)C(=O)N[C@@H](Cc1ccccc1)C(=O)N[C@@H](CC(N)=O)C(=O)N[C@@H](CC(C)C)C(=O)N1CCC[C@H]1C(=O)N[C@@H](CC(C)C)C(=O)NCC(=O)N[C@@H](CC(N)=O)C(=O)N[C@@H](Cc1ccc(O)cc1)C(=O)N[C@@H](C)C(=O)N[C@@H](CCCCN)C(=O)N1CCC[C@H]1C(N)=O) [Peptide 10] | 93.4 |  |  | 
3 | Palmitoyl-KFNLPLGNYKKA-NH2 (SMILES CCCCCCCCCCCCCCCC(=O)N[C@@H](CCCCN)C(=O)N[C@@H](Cc1ccccc1)C(=O)N[C@@H](CC(N)=O)C(=O)N[C@@H](CC(C)C)C(=O)N1CCC[C@H]1C(=O)N[C@@H](CC(C)C)C(=O)NCC(=O)N[C@@H](CC(N)=O)C(=O)N[C@@H](Cc1ccc(O)cc1)C(=O)N[C@@H](CCCCN)C(=O)N[C@@H](CCCCN)C(=O)N[C@@H](C)C(N)=O) [Peptide 12: Palm-Lys-Phe-Asn-Leu-Pro-Leu-Gly-Asn-Tyr-Lys-Lys-Ala-NH2] |  | 46.4 | 0 | 42.3
4 | Palmitoyl-KFNLPLGNYAKP-NH2 (SMILES CCCCCCCCCCCCCCCC(=O)N[C@@H](CCCCN)C(=O)N[C@@H](Cc1ccccc1)C(=O)N[C@@H](CC(N)=O)C(=O)N[C@@H](CC(C)C)C(=O)N1CCC[C@H]1C(=O)N[C@@H](CC(C)C)C(=O)NCC(=O)N[C@@H](CC(N)=O)C(=O)N[C@@H](Cc1ccc(O)cc1)C(=O)N[C@@H](C)C(=O)N[C@@H](CCCCN)C(=O)N1CCC[C@H]1C(N)=O) [Peptide 10: Palm-Lys-Phe-Asn-Leu-Pro-Leu-Gly-Asn-Tyr-Ala-Lys-Pro-NH2] |  | 0 | 0 | 0
5 | Palmitoyl-KFNLALGNYKKP-NH2 (SMILES CCCCCCCCCCCCCCCC(=O)N[C@@H](CCCCN)C(=O)N[C@@H](Cc1ccccc1)C(=O)N[C@@H](CC(N)=O)C(=O)N[C@@H](CC(C)C)C(=O)N[C@@H](C)C(=O)N[C@@H](CC(C)C)C(=O)NCC(=O)N[C@@H](CC(N)=O)C(=O)N[C@@H](Cc1ccc(O)cc1)C(=O)N[C@@H](CCCCN)C(=O)N[C@@H](CCCCN)C(=O)N1CCC[C@H]1C(N)=O) [Peptide 5: Palm-Lys-Phe-Asn-Leu-Ala-Leu-Gly-Asn-Tyr-Lys-Lys-Pro-NH2] |  | 49.6 | 0 | 0
6 | Palmitoyl-KFNAPLGNYKKP-NH2 (SMILES CCCCCCCCCCCCCCCC(=O)N[C@@H](CCCCN)C(=O)N[C@@H](Cc1ccccc1)C(=O)N[C@@H](CC(N)=O)C(=O)N[C@@H](C)C(=O)N1CCC[C@H]1C(=O)N[C@@H](CC(C)C)C(=O)NCC(=O)N[C@@H](CC(N)=O)C(=O)N[C@@H](Cc1ccc(O)cc1)C(=O)N[C@@H](CCCCN)C(=O)N[C@@H](CCCCN)C(=O)N1CCC[C@H]1C(N)=O) [Peptide 4: Palm-Lys-Phe-Asn-Ala-Pro-Leu-Gly-Asn-Tyr-Lys-Lys-Pro-NH2] |  | 60.8 | 0 | 0
7 | Palmitoyl-KFNLPAGNYKKP-NH2 (SMILES CCCCCCCCCCCCCCCC(=O)N[C@@H](CCCCN)C(=O)N[C@@H](Cc1ccccc1)C(=O)N[C@@H](CC(N)=O)C(=O)N[C@@H](CC(C)C)C(=O)N1CCC[C@H]1C(=O)N[C@@H](C)C(=O)NCC(=O)N[C@@H](CC(N)=O)C(=O)N[C@@H](Cc1ccc(O)cc1)C(=O)N[C@@H](CCCCN)C(=O)N[C@@H](CCCCN)C(=O)N1CCC[C@H]1C(N)=O) [Peptide 6: Palm-Lys-Phe-Asn-Leu-Pro-Ala-Gly-Asn-Tyr-Lys-Lys-Pro-NH2] |  | 78.5 | 92.7 | 69.8
8 | Palmitoyl-KFNLPLGAYKKP-NH2 (SMILES CCCCCCCCCCCCCCCC(=O)N[C@@H](CCCCN)C(=O)N[C@@H](Cc1ccccc1)C(=O)N[C@@H](CC(N)=O)C(=O)N[C@@H](CC(C)C)C(=O)N1CCC[C@H]1C(=O)N[C@@H](CC(C)C)C(=O)NCC(=O)N[C@@H](C)C(=O)N[C@@H](Cc1ccc(O)cc1)C(=O)N[C@@H](CCCCN)C(=O)N[C@@H](CCCCN)C(=O)N1CCC[C@H]1C(N)=O) [Peptide 8: Palm-Lys-Phe-Asn-Leu-Pro-Leu-Gly-Ala-Tyr-Lys-Lys-Pro-NH2] |  | 87.9 | 0 | 89.5
9 | Palmitoyl-KFNLPLGNYKKP-NH2 (SMILES CCCCCCCCCCCCCCCC(=O)N[C@@H](CCCCN)C(=O)N[C@@H](Cc1ccccc1)C(=O)N[C@@H](CC(N)=O)C(=O)N[C@@H](CC(C)C)C(=O)N1CCC[C@H]1C(=O)N[C@@H](CC(C)C)C(=O)NCC(=O)N[C@@H](CC(N)=O)C(=O)N[C@@H](Cc1ccc(O)cc1)C(=O)N[C@@H](CCCCN)C(=O)N[C@@H](CCCCN)C(=O)N1CCC[C@H]1C(N)=O) [Peptide 1: Palm-Lys-Phe-Asn-Leu-Pro-Leu-Gly-Asn-Tyr-Lys-Lys-Pro-NH2] |  | 75.8 | 0 | 38.7
10 | Palmitoyl-KANLPLGNYKKP-NH2 (SMILES CCCCCCCCCCCCCCCC(=O)N[C@@H](CCCCN)C(=O)N[C@@H](C)C(=O)N[C@@H](CC(N)=O)C(=O)N[C@@H](CC(C)C)C(=O)N1CCC[C@H]1C(=O)N[C@@H](CC(C)C)C(=O)NCC(=O)N[C@@H](CC(N)=O)C(=O)N[C@@H](Cc1ccc(O)cc1)C(=O)N[C@@H](CCCCN)C(=O)N[C@@H](CCCCN)C(=O)N1CCC[C@H]1C(N)=O) [Peptide 2: Palm-Lys-Ala-Asn-Leu-Pro-Leu-Gly-Asn-Tyr-Lys-Lys-Pro-NH2] |  | 38.8 | 0 | 96.4
11 | Palmitoyl-KFNLPLGNAKKP-NH2 (SMILES CCCCCCCCCCCCCCCC(=O)N[C@@H](CCCCN)C(=O)N[C@@H](Cc1ccccc1)C(=O)N[C@@H](CC(N)=O)C(=O)N[C@@H](CC(C)C)C(=O)N1CCC[C@H]1C(=O)N[C@@H](CC(C)C)C(=O)NCC(=O)N[C@@H](CC(N)=O)C(=O)N[C@@H](C)C(=O)N[C@@H](CCCCN)C(=O)N[C@@H](CCCCN)C(=O)N1CCC[C@H]1C(N)=O) [Peptide 9: Palm-Lys-Phe-Asn-Leu-Pro-Leu-Gly-Asn-Ala-Lys-Lys-Pro-NH2] |  | 91.6 | 15.7 | 92.5
12 | Palmitoyl-KFALPLGNYKKP-NH2 (SMILES CCCCCCCCCCCCCCCC(=O)N[C@@H](CCCCN)C(=O)N[C@@H](Cc1ccccc1)C(=O)N[C@@H](C)C(=O)N[C@@H](CC(C)C)C(=O)N1CCC[C@H]1C(=O)N[C@@H](CC(C)C)C(=O)NCC(=O)N[C@@H](CC(N)=O)C(=O)N[C@@H](Cc1ccc(O)cc1)C(=O)N[C@@H](CCCCN)C(=O)N[C@@H](CCCCN)C(=O)N1CCC[C@H]1C(N)=O) [Peptide 3: Palm-Lys-Phe-Ala-Leu-Pro-Leu-Gly-Asn-Tyr-Lys-Lys-Pro-NH2] |  | 91.9 | 85 | 65.9
13 | Palmitoyl-KFNLPLGNYKAP-NH2 (SMILES CCCCCCCCCCCCCCCC(=O)N[C@@H](CCCCN)C(=O)N[C@@H](Cc1ccccc1)C(=O)N[C@@H](CC(N)=O)C(=O)N[C@@H](CC(C)C)C(=O)N1CCC[C@H]1C(=O)N[C@@H](CC(C)C)C(=O)NCC(=O)N[C@@H](CC(N)=O)C(=O)N[C@@H](Cc1ccc(O)cc1)C(=O)N[C@@H](CCCCN)C(=O)N[C@@H](C)C(=O)N1CCC[C@H]1C(N)=O) [Peptide 11: Palm-Lys-Phe-Asn-Leu-Pro-Leu-Gly-Asn-Tyr-Lys-Ala-Pro-NH2] |  | 19.3 | 0 | 0
14 | Palmitoyl-KFNLPLANYKKP-NH2 (SMILES CCCCCCCCCCCCCCCC(=O)N[C@@H](CCCCN)C(=O)N[C@@H](Cc1ccccc1)C(=O)N[C@@H](CC(N)=O)C(=O)N[C@@H](CC(C)C)C(=O)N1CCC[C@H]1C(=O)N[C@@H](CC(C)C)C(=O)N[C@@H](C)C(=O)N[C@@H](CC(N)=O)C(=O)N[C@@H](Cc1ccc(O)cc1)C(=O)N[C@@H](CCCCN)C(=O)N[C@@H](CCCCN)C(=O)N1CCC[C@H]1C(N)=O) [Peptide 7: Palm-Lys-Phe-Asn-Leu-Pro-Leu-Ala-Asn-Tyr-Lys-Lys-Pro-NH2] |  | 72.9 | 0 | 67.9
